*1 amine or outer side, *2 acyl side, *3 side chain or, on linkers, in order; H or OH if unused. Bridges are numbered along the chain shown (N, C = ends). TBMB = c1c(C[*:1])cc(C[*:3])cc1C[*:2]
B1: TBMB modified synthetic peptide PK2 (bi-cyclic peptide) (peptide)
peptide: H-ACSDRFRNCPLWSGTCG-NH2
modifications: linker 2-9-16 via TBMB
SMILES: CC(C)C[C@@H]1NC(=O)[C@@H]2CCCN2C(=O)[C@@H]2CSCc3cc(cc(c3)CSC[C@@H](C(=O)NCC(N)=O)NC(=O)[C@H]([C@@H](C)O)NC(=O)CNC(=O)[C@H](CO)NC(=O)[C@H](Cc3c[nH]c4ccccc34)NC1=O)CSC[C@H](NC(=O)[C@H](C)N)C(=O)N[C@@H](CO)C(=O)N[C@@H](CC(=O)O)C(=O)N[C@@H](CCCNC(=N)N)C(=O)N[C@@H](Cc1ccccc1)C(=O)N[C@@H](CCCNC(=N)N)C(=O)N[C@@H](CC(N)=O)C(=O)N2
B2: TBMB modified peptide PK15 (bi-cyclic peptide) (peptide)
peptide: H-ACSDRFRNCPADEALCG-NH2
modifications: linker 2-9-16 via TBMB
notes: Chemically synthesized 17-mer reacted with TBMB; also called conjugate PK15; peptide conjugate PK15
B3: TBMB modified synthetic peptide PK4 (bi-cyclic peptide) (peptide)
peptide: H-ACSTERRYCPIEIFPCG-NH2
modifications: linker 2-9-16 via TBMB
SMILES: CC[C@H](C)[C@@H]1NC(=O)[C@H](CCC(=O)O)NC(=O)[C@H]([C@@H](C)CC)NC(=O)[C@@H]2CCCN2C(=O)[C@@H]2CSCc3cc(cc(c3)CSC[C@@H](C(=O)NCC(N)=O)NC(=O)[C@@H]3CCCN3C(=O)[C@H](Cc3ccccc3)NC1=O)CSC[C@H](NC(=O)[C@H](C)N)C(=O)N[C@@H](CO)C(=O)N[C@@H]([C@@H](C)O)C(=O)N[C@@H](CCC(=O)O)C(=O)N[C@@H](CCCNC(=N)N)C(=O)N[C@@H](CCCNC(=N)N)C(=O)N[C@@H](Cc1ccc(O)cc1)C(=O)N2
B4: TBMB modified peptide PK15 hydrolysed in one binding loop by human plasma kallikrein (peptide)
peptide: H-ACSDRFRNCPADEALCG-NH2
modifications: linker 2-9-16 via TBMB; also: one peptide bond in a loop hydrolysed, position not given here

Molecular target: T1, human plasma kallikrein (activated with factor XIIa) (human, UniProt P03952 20-638)
Assay: cell-based or functional assay

T1 sequence (P03952 20-638 limits assumed): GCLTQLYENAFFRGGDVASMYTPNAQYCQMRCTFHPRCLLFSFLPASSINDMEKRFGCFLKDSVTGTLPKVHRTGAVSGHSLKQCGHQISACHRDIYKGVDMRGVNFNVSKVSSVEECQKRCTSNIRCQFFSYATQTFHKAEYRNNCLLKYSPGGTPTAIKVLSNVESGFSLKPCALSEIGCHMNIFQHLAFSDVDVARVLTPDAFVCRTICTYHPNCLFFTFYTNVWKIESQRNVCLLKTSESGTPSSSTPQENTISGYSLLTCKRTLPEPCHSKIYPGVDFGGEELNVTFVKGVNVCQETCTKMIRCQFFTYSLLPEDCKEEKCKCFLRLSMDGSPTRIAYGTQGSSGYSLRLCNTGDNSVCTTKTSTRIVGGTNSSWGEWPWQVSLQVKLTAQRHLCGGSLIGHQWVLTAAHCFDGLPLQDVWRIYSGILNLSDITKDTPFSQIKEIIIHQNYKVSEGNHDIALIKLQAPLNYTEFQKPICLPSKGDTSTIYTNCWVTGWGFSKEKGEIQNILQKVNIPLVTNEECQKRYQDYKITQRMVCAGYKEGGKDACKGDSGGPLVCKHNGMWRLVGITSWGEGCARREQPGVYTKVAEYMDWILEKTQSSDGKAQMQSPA

Row | Binder | IC50 (nM), residual enzyme activity [nM]
1 | H-ACSTERRYCPIEIFPCG-NH2 (cysteine pairing not given here) [linear synthetic peptide PK4 (not TBMB modified)] | 7180
2 | B1 | 28.6
3 | H-ACSDRFRNCPLWSGTCG-NH2 (cysteine pairing not given here) [linear synthetic peptide PK2 (not TBMB modified)] | > 10000
4 | B2 | 1.7
5 | B3 | 33
6 | H-ACSDRFRNCPADEALCG-NH2 (cysteine pairing not given here) [linear synthetic peptide PK15 (not TBMB modified)] | > 10000

Molecular target: human factor XIa (human, UniProt P03951 19-625)
Assay: cell-based or functional assay

Row | Binder | inhibitory activity (residual enzyme activity) [µM]
7 | B1 | > 10
8 | B3 | > 10

Molecular target: T1, human plasma kallikrein (activated with …)
Assay: cell-based or functional assay
Remark: another data set of the same source

Row | Binder | IC50, residual enzyme activity [nM]
9 | B2 | 1.6
10 | B4 | 2.2

Molecular target: recombinant mouse plasma kallikrein (activated with thermolysin) (mouse, UniProt P26262 20-638)
Assay: cell-based or functional assay

recombinant mouse plasma kallikrein (activated with thermolysin), sequence (P26262 20-638 limits assumed): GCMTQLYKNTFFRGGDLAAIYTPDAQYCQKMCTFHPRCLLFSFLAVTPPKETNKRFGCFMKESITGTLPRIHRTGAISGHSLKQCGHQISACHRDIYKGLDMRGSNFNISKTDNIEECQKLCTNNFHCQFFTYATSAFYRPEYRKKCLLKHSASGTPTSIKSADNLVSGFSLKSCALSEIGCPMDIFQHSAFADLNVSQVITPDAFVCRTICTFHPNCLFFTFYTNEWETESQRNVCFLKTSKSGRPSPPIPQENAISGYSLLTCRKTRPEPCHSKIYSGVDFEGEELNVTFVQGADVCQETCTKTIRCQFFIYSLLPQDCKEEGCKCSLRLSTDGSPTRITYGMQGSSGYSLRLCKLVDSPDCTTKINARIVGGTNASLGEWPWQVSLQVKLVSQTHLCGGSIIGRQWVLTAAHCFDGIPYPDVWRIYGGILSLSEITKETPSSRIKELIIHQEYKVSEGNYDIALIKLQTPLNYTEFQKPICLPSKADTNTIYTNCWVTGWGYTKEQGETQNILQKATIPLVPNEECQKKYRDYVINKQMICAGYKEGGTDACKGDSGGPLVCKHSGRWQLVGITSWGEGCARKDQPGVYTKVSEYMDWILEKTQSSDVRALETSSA

Row | Binder | inhibitory activity (residual enzyme activity) [µM]
11 | B1 | > 10
12 | B3 | > 10

Molecular target: human thrombin (human, UniProt P00734 328-622)
Assay: cell-based or functional assay

Row | Binder | inhibitory activity (residual enzyme activity) [µM]
13 | B1 | > 10
14 | B3 | > 10

Molecular target: T1, human plasma kallikrein (activated with …)
Assay: cell-based or functional assay
Remark: another data set of the same source

Row | Binder | IC50 (nM), residual enzyme activity [nM]
15 | H-ACSTERRYCPIEIFPCG-NH2 (cysteine pairing not given here) [linear synthetic peptide PK4 (not TBMB modified)] | 7180
16 | B1 | 28.6
17 | H-ACSDRFRNCPLWSGTCG-NH2 (cysteine pairing not given here) [linear synthetic peptide PK2 (not TBMB modified)] | > 10000
18 | B2 | 1.7
19 | B3 | 33
20 | H-ACSDRFRNCPADEALCG-NH2 (cysteine pairing not given here) [linear synthetic peptide PK15 (not TBMB modified)] | > 10000

Molecular target: T1, human plasma kallikrein (activated with …)
Assay: apparent Ki calculated from the enzyme inhibition IC50 (fluorogenic substrate Z-Phe-Arg-AMC) with the Cheng and Prusoff equation

Row | Binder | Ki [nM]
21 | B2 | 1.5
